Experimental data reported in PMC10746525.

B1: MBP-TRAK1_(342-431) [human] / MIRO1_(177-591) [human] (parent)
chain 1: EEKEMKPACIKALTRIFKISDQDNDGTLNDAELNFFQRICFNTPLAPQALEDVKNVVRKHISDGVADSGLTLKGFLFLHTLFIQRGRHETTWTVLRRFGYDDDLDLTPEYLFPLLKIPPDCTTELNHHAYLFLQSTFDKHDLDRDCALSPDELKDLFKVFPYIPWGPDVNNTVCTNERGWITYQGFLSQWTLTTYLDVQRCLEYLGYLGYSILTEQESQASAVTVTRDKKIDLQKKQTQRNVFRCNVIGVKNCGKSGVLQALLGRNLMRQKKIREDHKSYYAINTVYVYGQEKYLLLHDISESEFLTEAEIICDVVCLVYDVSNPKSFEYCARIFKQHFMDSRIPCLIVAAKSDLHEVKQEYSISPTDFCRKHKMPPPQAFTCNTADAPSKDIFVKLTTMAMYPHVTQADLKSST
chain 2: EAQEELKNLRNKTMPNTTSRRYHSLGLFPMDSLAAEIEGTMRKELQLEEAESPDITHQKRVFETVRNINQVVKQRSLTPSPMNIPGSNQS
B2: MBP-TRAK1_(342-431) [human] / MIRO1_(177-591) [human] (parent)
chain 1: B1 chain 2
chain 2: B1 chain 1

What was measured:
[1] = variants of: B1; test: ITC; conditions: with MIRO1_(177-591) [human]; 370 µM MIRO1(177-591) in syringe, 35 µM MBP-TRAK1(342-431) 400KR401 to AA in cell; ITC buffer with 5 mM EGTA
[2] = variants of: B2; test: ITC; conditions: with MIRO1_(177-591) [human]; 370 µM MBP-TRAK1(342-431) 400KR401 to AA in syringe, 30 µM MIRO1(177-591) in cell; ITC buffer with 5 mM EGTA

Variant | Kd [1] [µM] | screen value [1] | Kd [2] [µM] | screen value [2]
chain 2 K59A R60A | 7.52 | 0.74 | – | –
chain 1 K59A R60A | – | – | 9.62 | 0.91
